From patent publication US20260109763A1 (DENALI THERAPEUTICS, published 2026)
Like-named read-outs stand apart in the source and are kept apart here. Blank lines part the entries; values can stand above or below the binder they belong to.

Tests used:
[1] = target: T1, human PILRB on cells (human, UniProt Q9UKJ0 20-227); assay: flow cytometry on hPILRB-DAP12 OE HEK293 cells
T1 construct: Expressed on CHO-K1 cells, or together with DAP12 on HEK293 cells (hPILRB-DAP12 OE HEK293); also called hPILRB; hPILRB-DAP12
T1 sequence (Q9UKJ0 20-227 limits assumed): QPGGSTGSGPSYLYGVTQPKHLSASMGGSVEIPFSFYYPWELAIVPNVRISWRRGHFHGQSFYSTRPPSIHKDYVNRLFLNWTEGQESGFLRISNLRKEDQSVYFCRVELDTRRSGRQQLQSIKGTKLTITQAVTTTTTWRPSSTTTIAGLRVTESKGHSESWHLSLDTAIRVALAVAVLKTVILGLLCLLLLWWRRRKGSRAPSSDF
Method: Human PILRB-DAP12 OE HEK293 cells were stained with NucBlue Live cell stain for 30 mins at RT. […] Cell lines were run in duplicates to account for intra-variability, for a total of N=3.

[2] = target: T2, human PILRA R78 on cells (human, UniProt Q9UKJ1 20-303); assay: flow cytometry on PILRA R78 expressing HEK293 cells (FIG. 1F)
T2 construct: also called hPILRA R78; PILRA 78R
Method: (§1) PILRA G78 or R78 overexpressing HEK293 cells were stained with NucBlue Live cell stain for 30 mins at RT. […] Cell lines were run in duplicate to account for intra-variability, for a total of N=3. The same protocol was used for CHO-K1 cells expressing hPILRA G78.

[3] = target: T3, human PILRA G78 on cells (human, UniProt Q9UKJ1 20-303); assay: flow cytometry (MFI), CHO-K1 cells expressing hPILRA G78, Alexa Fluor 647 anti-human IgG
T3 construct: wild-type iMicroglia are R78/G78 heterozygous (said in the assay field); also called hPILRA; hPILRA G78
Method: as §1

[4] = target: T3, human PILRA G78 on cells; assay: flow cytometry on HEK293 cells expressing hPILRA G78
Target sequence in this assay (Q9UKJ1 20-303 R78G limits assumed): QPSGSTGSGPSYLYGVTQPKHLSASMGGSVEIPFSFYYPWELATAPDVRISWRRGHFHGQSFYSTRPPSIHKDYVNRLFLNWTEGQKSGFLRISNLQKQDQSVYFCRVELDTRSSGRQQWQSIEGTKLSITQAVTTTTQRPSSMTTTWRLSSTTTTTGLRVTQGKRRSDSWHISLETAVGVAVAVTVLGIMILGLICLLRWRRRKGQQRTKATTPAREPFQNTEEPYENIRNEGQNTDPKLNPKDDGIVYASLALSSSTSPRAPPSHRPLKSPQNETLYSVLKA

[5] = target: T4, human PILRA G78 extracellular domain (recombinant hPILRA ECD) (human, UniProt Q9UKJ1 20-197); assay: SPR, Biacore 8K; hPILRA ECD; antibody with wild-type Fc
T4 construct: also called hPILRA G78
T4 sequence (Q9UKJ1 20-197 R78G limits assumed): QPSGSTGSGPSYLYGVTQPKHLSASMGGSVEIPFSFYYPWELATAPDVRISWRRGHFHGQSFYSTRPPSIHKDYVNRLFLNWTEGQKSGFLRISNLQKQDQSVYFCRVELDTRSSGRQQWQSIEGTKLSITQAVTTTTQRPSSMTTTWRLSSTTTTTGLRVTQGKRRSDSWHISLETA

[6] = target: T5, human PILRA R78 extracellular domain (recombinant) (human, UniProt Q9UKJ1 20-197); assay: SPR
T5 construct: also called hPILRA R78
Target sequence in this assay (Q9UKJ1 20-197 limits assumed): as the sequence (Q9UKJ1 20-197 R78G limits assumed) above, with G59R counted along it

[7] = target: T6, cynomolgus monkey PILRA extracellular domain (recombinant) (cynomolgus monkey); assay: SPR
T6 construct: also called cynoPILRA; Cyno PILRA
T6 sequence (chain, as listed by the source limits assumed): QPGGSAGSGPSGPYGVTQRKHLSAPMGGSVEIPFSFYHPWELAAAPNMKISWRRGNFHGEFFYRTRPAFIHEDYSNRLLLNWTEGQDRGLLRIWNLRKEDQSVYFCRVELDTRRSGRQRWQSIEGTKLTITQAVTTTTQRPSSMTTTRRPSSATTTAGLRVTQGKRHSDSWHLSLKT

[8] = target: T7, human PILRB extracellular domain (recombinant) (human, UniProt Q9UKJ0 20-191); assay: SPR
T7 construct: also called hPILRB
T7 sequence (Q9UKJ0 20-191 limits assumed): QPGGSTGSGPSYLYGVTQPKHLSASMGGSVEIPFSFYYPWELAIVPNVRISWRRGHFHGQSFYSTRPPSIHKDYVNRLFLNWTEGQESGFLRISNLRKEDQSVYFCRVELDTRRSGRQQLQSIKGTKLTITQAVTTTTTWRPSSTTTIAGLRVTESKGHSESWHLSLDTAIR

[9] = target: T4, human PILRA G78 extracellular domain …; assay: SPR
[10] = target: T3, human PILRA G78 on cells; assay: cell-based or functional assay
Target sequence in this assay (Q9UKJ1 20-303 R78G limits assumed): as the sequence (Q9UKJ1 20-303 R78G limits assumed) above

[11] = target: T2, human PILRA R78 on cells; assay: cell-based or functional assay
Target sequence in this assay (Q9UKJ1 20-303 limits assumed): as the sequence (Q9UKJ1 20-303 R78G limits assumed) above, with G59R counted along it

[12] = target: T5, human PILRA R78 extracellular domain …; assay: SPR, Biacore 8K; antibody captured via anti-human Fab, recombinant ECD injected; 1:1 fit;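 note: CM5 sensor chip, ECD analyte in threefold dilution series at 30 µL/min, 3 min association and 10 min dissociation, kon and koff fitted simultaneously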
Method: (§2) Antibodies were captured on Biacore™ Series S CM5 sensor chips immobilized with mouse anti-human Fab (human Fab capture kit from GE Healthcare) followed by injections of serial 3-fold dilutions of recombinant ECD reagents at a flow rate of 30 μL/min. Each sample was analyzed using a 3-minute association followed by a 10-minute dissociation. After each injection, the sensor chip was regenerated using a 5 0 mM glycine pH2.0 regeneration buffer. A 1:1 Languir model of simultaneous fitting of kₒₙ and koff was used for kinetics analysis.

[13] = target: T6, cynomolgus monkey PILRA extracellular …; assay: as above
Method: as §2

[14] = target: T4, human PILRA G78 extracellular domain …; assay: as above
Method: as §2

[15] = target: T7, human PILRB extracellular domain …; assay: SPR, Biacore 8K, recombinant ECD
Method: as §2

[16] = target: T3, human PILRA G78 on cells; assay: flow cytometry on HEK293 cells expressing hPILRA G78; remark: listed apart in the source
Target sequence in this assay (Q9UKJ1 20-303 R78G limits assumed): as the sequence (Q9UKJ1 20-303 R78G limits assumed) above
Method: Parental HEK293 cells were labeled with NucBlue Live ReadyProbes Reagent for 30 mins. […] Antibody binding to the cells was detected by FACS and median fluorescence intensity (MFI) was derived from data analysis performed with the FLOJO software (FIGS. 1A-1C).

[17] = target: T2, human PILRA R78 on cells; assay: flow cytometry on PILRA R78 expressing HEK293 cells (FIG. 1F); flow cytometry titration on HEK293 cells overexpressing PILRA R78
Method: as §1

[18] = target: T3, human PILRA G78 on cells; assay: cell-based or functional assay; remark: listed apart in the source
Target sequence in this assay (Q9UKJ1 20-303 R78G limits assumed): as above

EC50 [1]: 1.2 nM
B1: PILRB binding positive control antibody (antibody, human IgG1, kappa, L234A L235A, V domains shown)
VH: QVQLQESGPGLVKPSGTLSLTCAVSGGSISSNHWWSWVRQPPGKGLEWIGEIYHYGTTDYNPSLQSRVTISVDKSKNQFSLKLTSVTAADTAVYFCARGLRDYYYYMDVWGKGTTVTVSS
VL: DIQMTQSPSSLSASVGDRVTITCRASQTISSYLNWYQQKPGKAPKLLIYAASSLQSGVPSRFSGSGFGTDFTLTISSLQPEDFATYYCQQSYSIPLTFGGGTKVEIKR

EC50 [2]: 3.1 nM | EC50 (read off the curve) [3]: ~10 nM | EC50 [4]: 12.8 nM | Kd [5]: 1.71 nM | Kd [6]: 25 nM | Kd [7]: 5.3 nM | Kd [8]: 150 nM | Kd [9]: 1.4 nM | pSTAT3 S727 induction, EC50 (nM) [10]: 23 nM | pSTAT3 S727 induction, Fold Over Background [10]: 28.9 fold | pSTAT3 Y705 induction, EC50 (nM) [10]: 11.4 nM | pSTAT3 Y705 induction, Fold Over Background [10]: 35.5 fold | pSTAT3 S727 induction, EC50 (nM) [11]: 10.6 nM | pSTAT3 S727 induction, Fold Over Background [11]: 30.1 fold | pSTAT3 Y705 induction, EC50 (nM) [11]: 6.19 nM | pSTAT3 Y705 induction, Fold Over Background [11]: 41 fold
B2: Anti-PILRA antibody clone 35 (antibody, V domains shown)
VH: EVQLVQSGAEVKKPGASVKVSCKASGYTFTEYYMYWVRQAPGQGLELIGRIDPEDGGTDYVEKFKNRATLTADTSTSTAYLELSSLRSEDTAVYFCASTIRGTVFVYWGQGTLVTVSS
VL: DIQMTQSPSSLSASVGDRVTITCRPSEDIYNGLAWYQQKPGKSPKLLIYNANSLHTGVPSRFSGSGSGTDYTLTISSLQPEDFATYFCQQYYDYPLTFGQGTKVEIK
notes: Humanized; also called Ab.35

Kd [12]: 270 nM | Kd [13]: 1.7 nM | Kd [14]: 0.69 nM | binding result [15]: no binding | EC50 [16]: 12.5 nM | EC50 [17]: 5.1 nM | pSTAT3 Y705 induction, EC50 (nM) [18]: 1.45 nM | pSTAT3 Y705 induction, Fold Over Background [18]: 16 fold
B3: Anti-PILRA antibody clone 2 (antibody, human IgG1, kappa, L234A L235A, V domains shown)
VH: EVQLVESGGGLVQPGRSLRLSCAVSGFTFDDYAMHWVRQAPGKGLEWVSGFSWNSGSIGYPDSVKGRFTISRDNAKNSLYLQMNSLRAEDTAFYYCAKDKSISAAGRFDYWGQGTLVTVSS
VL: DIQMTQSPSSLSASVGDRVTITCQASRRINNYLNWYQQKPGKAPKLLIYDASNLETGVPSRFTGSGSGTDFTLTISSLQPEDIATYYCQQYDNLPLTFGGGTKVEIKR
notes: also called Ab; Clone 2; Ab.2
